Columns and labels:
[1] = molecular target: T1, His-tagged talin-head (talin 1–405 aa), N-tagged version (UniProt P26039 1-405); assay: BLI; Octet RED384; biotinylated MBP-LIMs immobilised on streptavidin sensor (biocytin quench); His-tagged talin head in solution at 20, 80, 320, 1250 and 5000 nM; PBS with 1% BSA, 0.1% Tween-20, 0.05% sodium azide; 27 °C, 1000 rpm; biotinylated free MBP sensor subtracted; apparent affinity; conditions: both partners purified
T1 construct: talin 1, residues 1–405 (head domain); also called TH; N-tagged talin; not shown: His tag, N-terminal, kept

[2] = molecular target: T2, His-tagged talin-head (talin 1–405 aa), C-tagged version (UniProt P26039 1-405); assay: as above; conditions: both partners purified
T2 construct: talin 1, residues 1–405 (head domain); also called TH; C-tagged talin; not shown: His tag, C-terminal, kept
T2 sequence (P26039 1-405): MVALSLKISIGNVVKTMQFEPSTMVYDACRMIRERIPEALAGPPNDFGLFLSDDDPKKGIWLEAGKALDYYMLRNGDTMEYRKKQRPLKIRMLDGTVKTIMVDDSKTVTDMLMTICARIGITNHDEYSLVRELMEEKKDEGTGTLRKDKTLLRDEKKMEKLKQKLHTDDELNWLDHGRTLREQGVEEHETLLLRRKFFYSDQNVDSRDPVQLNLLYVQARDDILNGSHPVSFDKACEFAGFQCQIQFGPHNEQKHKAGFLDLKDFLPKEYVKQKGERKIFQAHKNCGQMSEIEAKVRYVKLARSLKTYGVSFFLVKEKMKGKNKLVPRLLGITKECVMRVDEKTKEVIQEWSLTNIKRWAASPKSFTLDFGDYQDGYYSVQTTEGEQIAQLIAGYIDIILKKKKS

T1 sequence (P26039 1-405): as above

- Kd [1]: 720 nM
- Kd [2]: 770 nM
B1: biotinylated MBP-LIMs (domain or fragment, human, UniProt P49023-2 317-557, looked up)
chain: ATVAKGVCGACKKPIAGQVVTAMGKTWHPEHFVCTHCQEEIGSRNFFERDGQPYCEKDYHNLFSPRCYYCNGPILDKVVTALDRTWHPEHFFCAQCGAFFGPEGFHEKDGKAYCRKDYFDMFAPKCGGCARAILENYISALNTLWHPECFVCRECFTPFVNGSFFEHDGQPYCEVHYHERRGSLCSGCQKPITGRCITAMAKKFHPEHFVCAFCLKQLNKGTFKEQNDKPYCQNCFLKLFC
modifications: biotin (EZ-Link NHS-PEG4-Biotin)
notes: paxillin LIM1-LIM4, human paxillin α; limits as told for the LIMs construct (from residue 317), the MBP constructs being 'analogously produced'; numbered according to P49023-2; also called MBP-tagged and biotinylated LIM domains (LIMs)

Source: publication PMC8007706, “Structural and functional analysis of LIM domain-dependent recruitment of paxillin to αvβ3 integrin-positive focal adhesions” (Communications Biology, 2021)
